This note sets out measurements from article PMC9674691.

Series [1] deals with biotinylated NmeHNH (Neisseria meningitidis) (UniProt C9X1G5). The experiment in a line: BLI; biotinylated NmeHNH on streptavidin biosensors, Acr as analyte, 37 °C, 20 mM Tris, 100 mM NaCl, pH 7.4 with 1 mM DTT; global 1:1 fit.
Series [2] has the same target. Description: BLI; biotinylated NmeHNH on streptavidin biosensors, Acr as analyte, 37 °C, 20 mM Tris, 100 mM NaCl, pH 7.4 without DTT; global 1:1 fit.
The target of the next series is Cys80 (UniProt position 80, VGMASCWEFVE). Description: NMR. Conditions: 25 °C (general statement in the NMR methods), 100 mM NaCl, 50 mM Tris, buffer-exchanged at each pH, Free protein. Reduced monomer is inferred from Cbeta shifts of about 25.5-29.5 ppm, typical of free thiol. The presence of a reductant in the titration buffer is not stated.
The target of another series is Cys17 (UniProt position 17, AGYDGCGLCLA). The experiment in a line: NMR. Conditions: 25 °C (general statement in the NMR methods), 100 mM NaCl, 50 mM Tris, buffer-exchanged at each pH, Free protein. Reduced monomer is inferred from Cbeta shifts of about 25.5-29.5 ppm, typical of free thiol. The presence of a reductant in the titration buffer is not stated.
Series [3] has as its target BoeAcrIIC1 (AcrIIC1 ortholog from Brackiella oedipodis) (Brackiella oedipodis). The experiment in a line: SEC + other: 1H NMR spectra; AcrIIC1 ortholog alone, oxidizing condition.
Series [4] has as its target NmeAcrIIC1 (AcrIIC1 from Neisseria meningitidis), reduced form (Neisseria meningitidis). The experiment in a line: SEC; NmeAcrIIC1 alone, no reductant in the buffer or excess H2O2 added to the monomer eluent.

On to “AcrIIC1-SS (NmeAcrIIC1 with Cys17 and Cys80 substituted with serine) (natural protein)”, for which the Kd was 12.7 nM in series [1] and 10.8 nM in series [2].

As to “Anti-CRISPR protein AcrIIC1 (NmeAcrIIC1) (Neisseria meningitidis)”, the figures for the pKa with Cys80 and with Cys17 were 8.258 ± 0.218 and 8.920 ± 0.158, respectively.

Regarding “BoeAcrIIC1 (AcrIIC1 ortholog from Brackiella oedipodis) (natural protein)”, the stoichiometry N in series [3] turned out to be 2.

On to “NmeAcrIIC1 (AcrIIC1 from Neisseria meningitidis), reduced form (natural protein)”, for which, in series [1], the Kd worked out at 1.78 nM. This substance came in with a stoichiometry N in series [4] of 2.

In series [2], “oxidized NmeAcrIIC1 dimer (natural protein)” showed a BLI response of under 0.05.
